From publication PMC10804554, “The DNA damage sensor ATM kinase interacts with the p53 mRNA and guides the DNA damage response pathway” (Molecular Cancer, 2024)

B1: recombinant FAT domain of ATM (rFAT), his-tagged (domain or fragment)
chain: EVAKVAQSCAAHFTALLYAEIYADKKSMDDQEKRSLAFEEGSQSTTISSLSEKSKEETGISLQDLLLEIYRSIGEPDSLYGCGGGKMLQPITRLRTYEHEAMWGKALVTYDLETAIPSSTRQAGIIQALQNLGLCHILSVYLKGLDYENKDWCPELEELHYQAAWRNMQWDHCTSVSKEVEGTSYHESLYNALQSLRDREFSTFYESLKYARVKEVEEMCKRSLESVYSLYPTLSRLQAIGELESIGELFSRSVTHRQLSEVYIKWQKHSQLLKDSDFSFQEPIMALRTVILEILMEKEMDNSQRECIKDILTKHLVELSILARTFKNTQLPERAIFQIKQYNSVSCGVSEWQLEEAQVFWAKKEQSLALSILKQMIKKLDASCAANNPSLKLTYTECLRVCGNWLAETCLENPAVIMQTYLEKAVEVAGNYDGESSDELRNGKMKAFLSLARFSDTQYQRIENYMKSSEFENKQALLKRAKEEVGLLREHKIQTNRYTVKVQRELELDELALRALKEDRKRFLCKAVENYINCLLSGEEHDMWVFRLCSLWLENSGVSEVNGMMKRDGMKIPTYKFLPLMYQLAARMGTKMMGGLGFHEVLNNLISRISMDHPHHTLFIILALANA
B2: recombinant PI3K domain of ATM (rPI3K), his-tagged (domain or fragment)
chain: FKAEFRLAGGVNLPKIIDCVGSDGKERRQLVKGRDDLRQDAVMQQVFQMCNTLLQRNTETRKRKLTICTYKVVPLSQRSGVLEWCTGTVPIGEFLVNNEDGAHKRYRPNDFSAFQCQKKMMEVQKKSFEEKYEVFMDVCQNFQPVFRYFCMEKFLDPAIWFEKRLAYTRSVATSSIVGYILGLGDRHVQNILINEQSAELVHIDLGVAFEQGKILPTPETVPFRLTRDIVDGMGITGVEGVFRRCCEKTMEVMRNSQETLLTIVEVLLYDPLFDWTMNPLKALYLQQRPEDETELHPTLNADDQECKRNLSDI

Target: T1, recombinant MDM2 protein (UniProt Q00987 1-491)
T1 construct: MDM2 E3 ubiquitin ligase, recombinant version used in sandwich ELISA; Source, limits and tags of the recombinant MDM2 may stand in Supplementary Methods; source: recombinant
Assay: ELISA; protein-protein sandwich ELISA on 96-well plates with his-tagged recombinant FAT or PI3K domain and recombinant MDM2; details in Supplementary Methods

T1 sequence (Q00987 whole entry): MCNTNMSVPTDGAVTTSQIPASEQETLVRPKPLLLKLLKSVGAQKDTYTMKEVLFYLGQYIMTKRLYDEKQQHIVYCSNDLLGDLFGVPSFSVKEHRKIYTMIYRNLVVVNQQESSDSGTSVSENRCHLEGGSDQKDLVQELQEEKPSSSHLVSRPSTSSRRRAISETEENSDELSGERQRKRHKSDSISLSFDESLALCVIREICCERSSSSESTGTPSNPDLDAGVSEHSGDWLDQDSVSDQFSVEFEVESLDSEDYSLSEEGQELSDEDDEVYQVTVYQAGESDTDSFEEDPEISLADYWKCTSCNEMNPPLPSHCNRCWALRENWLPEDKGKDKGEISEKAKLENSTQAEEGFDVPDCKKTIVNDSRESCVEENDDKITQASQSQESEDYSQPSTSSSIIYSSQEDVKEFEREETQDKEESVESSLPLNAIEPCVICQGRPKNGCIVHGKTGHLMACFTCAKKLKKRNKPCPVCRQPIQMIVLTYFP

Binder | Kd [nM]
B1 | 30
B2 | 186
